The results in this text go back to patent US10513563.

The target of this assay is transferrin receptor on H4IIE hepatoma cells (rat) (UniProt Q99376). Kind of assay: cell-based or functional assay.
Chain of UniProt Q99376 (Q99376 whole entry): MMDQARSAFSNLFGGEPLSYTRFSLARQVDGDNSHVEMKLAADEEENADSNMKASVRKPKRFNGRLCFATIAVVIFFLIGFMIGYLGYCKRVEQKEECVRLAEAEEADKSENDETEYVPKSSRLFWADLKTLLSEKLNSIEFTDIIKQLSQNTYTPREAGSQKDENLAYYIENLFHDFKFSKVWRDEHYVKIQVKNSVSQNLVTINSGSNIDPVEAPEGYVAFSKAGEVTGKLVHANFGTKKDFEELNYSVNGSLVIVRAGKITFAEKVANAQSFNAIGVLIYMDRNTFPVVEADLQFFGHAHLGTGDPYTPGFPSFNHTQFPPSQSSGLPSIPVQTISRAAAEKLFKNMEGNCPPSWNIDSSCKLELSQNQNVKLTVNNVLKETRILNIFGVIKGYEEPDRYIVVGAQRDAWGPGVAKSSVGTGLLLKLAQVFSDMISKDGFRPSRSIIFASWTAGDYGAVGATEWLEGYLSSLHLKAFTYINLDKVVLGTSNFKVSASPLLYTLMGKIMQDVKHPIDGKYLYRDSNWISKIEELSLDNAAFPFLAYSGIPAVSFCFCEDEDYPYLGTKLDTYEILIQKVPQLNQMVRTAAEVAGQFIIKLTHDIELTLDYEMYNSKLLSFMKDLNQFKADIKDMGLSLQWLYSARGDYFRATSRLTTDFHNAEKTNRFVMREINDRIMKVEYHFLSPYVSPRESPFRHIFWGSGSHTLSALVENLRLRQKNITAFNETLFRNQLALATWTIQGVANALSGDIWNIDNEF

As to “PI-Tf fusion protein (proinsulin-transferrin recombinant fusion protein)”, the IC50 of inhibition of glucose production in H4IIE cells (24 hr treatment) amounted to 4.6 pM; the activity in inhibition of glucose production in H4IIE cells relative to proinsulin and insulin is 300 fold.
